Experimental data taken from PMC11287265.

Molecular target: SHP2 N-terminal SH2 domain, T42A (human)
Experiment: fluorescence polarisation

fluorescent phosphopeptide derived from pTyr1179 of insulin receptor substrate 1 (IRS-1)
fold tighter binding against N-SH2 WT: 5 fold
